Experimental data reported in patent US20240279318A1 (NANJING LEGEND BIOTECH, published 2024).

What was measured:
[1] = target: T1, AFP158/HLA-A*02:01 complex (human); experiment: SPR, crude scFv captured, pMHC analyte;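 further: complex injected at several concentrations over the chip, association phase then running buffer for dissociation, KD derived from on- and off-rates computed from both curves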
T1 construct: flowed as analyte in SPR
Protocol: (§1) The experiment was carried out as follows. The crude scFv protein were captured onto the sensorchip. Different concentrations (320, 160, 40 nM) of AFP158/HLA-A*02:01 complex flowed over the sensorchip surface, and were allowed to bind the antibody fragment for 100 s followed by injection of the running buffer to allow dissociation of the complex. On-rate (kd) and off-rate (kd) were calculated based on association and dissociation curve, and were used to estimate the equilibrium dissociation constant (KD).
The crude scFv muteins were then subjected to SPR affinity measurement by the method mentioned above.

[2] = target: T2, AFP158/HLA-A*02:01 complex (human); experiment: SPR, crude scFv captured;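 further: Peptide–MHC complex flowed at several concentrations over sensorchip-captured scFv, Kd derived from on- and off-rates obtained from the association and dissociation curves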
T2 construct: biotinylated on the BSP by BirA for ELISA and panning; also called biotinylated AFP158/HLA-A*02:01 complex; Bio-AFP158
Protocol: as §1

[3] = target: T2, AFP158/HLA-A*02:01 complex; experiment: SPR; vs AS170036 VL1VH1;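 further: crude scFv captured on sensor chip, peptide–HLA complex flowed over at several concentrations, KD estimated from association and dissociation kinetic rates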
Protocol: as §1

Binder | Kd [1] [nM] | koff [1] [s⁻¹] | kon [1] [M⁻¹ s⁻¹] | Kd [2] [nM] | Affinity increase [3] [fold]
AS170036 VL1VH1 HG56A (scFv) scFv: QSALTQPRSVSGSPGQSVTISCAGTSSDVGSENYVSWYQQHPGKAPKLMIYQVNKRASGVPDRFSGSKSGNTASLTISGLQAEDEADYYCASYRSSDHNIVFGGGTKLTVLGGGGSGGGGSGGGGSEVQLVESGGGLVQPGGSLRLSCAASGFTFSSYAMSWVRQAPGKGLEWVSTINSGTASPYYADSVKGRFTISRDNSKNTLYLQMNSLRAEDTAVYYCAKNFFDGSWFLGPPAMDYWGQGTLVTVSSHHHHHH |  |  |  | 160 | 1.4
AS170036 VL1VH1 HD102G (scFv) scFv: QSALTQPRSVSGSPGQSVTISCAGTSSDVGSENYVSWYQQHPGKAPKLMIYQVNKRASGVPDRFSGSKSGNTASLTISGLQAEDEADYYCASYRSSDHNIVFGGGTKLTVLGGGGSGGGGSGGGGSEVQLVESGGGLVQPGGSLRLSCAASGFTFSSYAMSWVRQAPGKGLEWVSTINSGTGSPYYADSVKGRFTISRDNSKNTLYLQMNSLRAEDTAVYYCAKNFFGGSWFLGPPAMDYWGQGTLVTVSSHHHHHH |  |  |  | 2500 | 0.1
AS170036 VL1VH1 HD102E (scFv) scFv: QSALTQPRSVSGSPGQSVTISCAGTSSDVGSENYVSWYQQHPGKAPKLMIYQVNKRASGVPDRFSGSKSGNTASLTISGLQAEDEADYYCASYRSSDHNIVFGGGTKLTVLGGGGSGGGGSGGGGSEVQLVESGGGLVQPGGSLRLSCAASGFTFSSYAMSWVRQAPGKGLEWVSTINSGTGSPYYADSVKGRFTISRDNSKNTLYLQMNSLRAEDTAVYYCAKNFFEGSWFLGPPAMDYWGQGTLVTVSSHHHHHH |  |  |  | 190 | 1.2
AS170036 VL1VH1 HD102P (scFv) scFv: QSALTQPRSVSGSPGQSVTISCAGTSSDVGSENYVSWYQQHPGKAPKLMIYQVNKRASGVPDRFSGSKSGNTASLTISGLQAEDEADYYCASYRSSDHNIVFGGGTKLTVLGGGGSGGGGSGGGGSEVQLVESGGGLVQPGGSLRLSCAASGFTFSSYAMSWVRQAPGKGLEWVSTINSGTGSPYYADSVKGRFTISRDNSKNTLYLQMNSLRAEDTAVYYCAKNFFPGSWFLGPPAMDYWGQGTLVTVSSHHHHHH |  |  |  | 880 | 0.3
AS170036 VL1VH1 HD102I (scFv) scFv: QSALTQPRSVSGSPGQSVTISCAGTSSDVGSENYVSWYQQHPGKAPKLMIYQVNKRASGVPDRFSGSKSGNTASLTISGLQAEDEADYYCASYRSSDHNIVFGGGTKLTVLGGGGSGGGGSGGGGSEVQLVESGGGLVQPGGSLRLSCAASGFTFSSYAMSWVRQAPGKGLEWVSTINSGTGSPYYADSVKGRFTISRDNSKNTLYLQMNSLRAEDTAVYYCAKNFFIGSWFLGPPAMDYWGQGTLVTVSSHHHHHH |  |  |  | 1900 | 0.1
AS170036 VL1VH1 HD102M (scFv) scFv: QSALTQPRSVSGSPGQSVTISCAGTSSDVGSENYVSWYQQHPGKAPKLMIYQVNKRASGVPDRFSGSKSGNTASLTISGLQAEDEADYYCASYRSSDHNIVFGGGTKLTVLGGGGSGGGGSGGGGSEVQLVESGGGLVQPGGSLRLSCAASGFTFSSYAMSWVRQAPGKGLEWVSTINSGTGSPYYADSVKGRFTISRDNSKNTLYLQMNSLRAEDTAVYYCAKNFFMGSWFLGPPAMDYWGQGTLVTVSSHHHHHH |  |  |  | 840 | 0.3
AS170036 VL1VH1 HD102N (scFv) scFv: QSALTQPRSVSGSPGQSVTISCAGTSSDVGSENYVSWYQQHPGKAPKLMIYQVNKRASGVPDRFSGSKSGNTASLTISGLQAEDEADYYCASYRSSDHNIVFGGGTKLTVLGGGGSGGGGSGGGGSEVQLVESGGGLVQPGGSLRLSCAASGFTFSSYAMSWVRQAPGKGLEWVSTINSGTGSPYYADSVKGRFTISRDNSKNTLYLQMNSLRAEDTAVYYCAKNFFNGSWFLGPPAMDYWGQGTLVTVSSHHHHHH |  |  |  | 2500 | 0.1
AS170036 VL1VH1 HD102L (scFv) scFv: QSALTQPRSVSGSPGQSVTISCAGTSSDVGSENYVSWYQQHPGKAPKLMIYQVNKRASGVPDRFSGSKSGNTASLTISGLQAEDEADYYCASYRSSDHNIVFGGGTKLTVLGGGGSGGGGSGGGGSEVQLVESGGGLVQPGGSLRLSCAASGFTFSSYAMSWVRQAPGKGLEWVSTINSGTGSPYYADSVKGRFTISRDNSKNTLYLQMNSLRAEDTAVYYCAKNFFLGSWFLGPPAMDYWGQGTLVTVSSHHHHHH |  |  |  | 1700 | 0.1
AS170036 VL1VH1 HD102A (scFv) scFv: QSALTQPRSVSGSPGQSVTISCAGTSSDVGSENYVSWYQQHPGKAPKLMIYQVNKRASGVPDRFSGSKSGNTASLTISGLQAEDEADYYCASYRSSDHNIVFGGGTKLTVLGGGGSGGGGSGGGGSEVQLVESGGGLVQPGGSLRLSCAASGFTFSSYAMSWVRQAPGKGLEWVSTINSGTGSPYYADSVKGRFTISRDNSKNTLYLQMNSLRAEDTAVYYCAKNFFAGSWFLGPPAMDYWGQGTLVTVSSHHHHHH |  |  |  | 590 | 0.4

Other lines, results leading:

Kd [1] [nM] | koff [1] [s⁻¹] | kon [1] [M⁻¹ s⁻¹] | Kd [2] [nM] | Affinity increase [3] [fold] | Binder
21 | 0.0035 | 170000 |  |  | AS170036 VL1VH1-57M98I108S (scFv, also called 81-AS170036 VL1VH1-57M98I108S) scFv: QSALTQPRSVSGSPGQSVTISCAGTSSDVGSENYVSWYQQHPGKAPKLMIYQVNKRASGVPDRFSGSKSGNTASLTISGLQAEDEADYYCASYRSSDINIVFGGGTKLTVLGGGGSGGGGSGGGGSEVQLVESGGGLVQPGGSLRLSCAASGFTFSSYAMSWVRQAPGKGLEWVSTINSGTGMPYYADSVKGRFTISRDNSKNTLYLQMNSLRAEDTAVYYCAKNFFDGSWFLSPPAMDYWGQGTLVTVSSHHHHHH
 |  |  | 830 | 0.3 | AS170036 VL1VH1 HF101H (scFv) scFv: QSALTQPRSVSGSPGQSVTISCAGTSSDVGSENYVSWYQQHPGKAPKLMIYQVNKRASGVPDRFSGSKSGNTASLTISGLQAEDEADYYCASYRSSDHNIVFGGGTKLTVLGGGGSGGGGSGGGGSEVQLVESGGGLVQPGGSLRLSCAASGFTFSSYAMSWVRQAPGKGLEWVSTINSGTGSPYYADSVKGRFTISRDNSKNTLYLQMNSLRAEDTAVYYCAKNFHDGSWFLGPPAMDYWGQGTLVTVSSHHHHHH
 |  |  | 1800 | 0.1 | AS170036 VL1VH1 HD102T (scFv) scFv: QSALTQPRSVSGSPGQSVTISCAGTSSDVGSENYVSWYQQHPGKAPKLMIYQVNKRASGVPDRFSGSKSGNTASLTISGLQAEDEADYYCASYRSSDHNIVFGGGTKLTVLGGGGSGGGGSGGGGSEVQLVESGGGLVQPGGSLRLSCAASGFTFSSYAMSWVRQAPGKGLEWVSTINSGTGSPYYADSVKGRFTISRDNSKNTLYLQMNSLRAEDTAVYYCAKNFFTGSWFLGPPAMDYWGQGTLVTVSSHHHHHH
 |  |  | 2200 | 0.1 | AS170036 VL1VH1 HD102W (scFv) scFv: QSALTQPRSVSGSPGQSVTISCAGTSSDVGSENYVSWYQQHPGKAPKLMIYQVNKRASGVPDRFSGSKSGNTASLTISGLQAEDEADYYCASYRSSDHNIVFGGGTKLTVLGGGGSGGGGSGGGGSEVQLVESGGGLVQPGGSLRLSCAASGFTFSSYAMSWVRQAPGKGLEWVSTINSGTGSPYYADSVKGRFTISRDNSKNTLYLQMNSLRAEDTAVYYCAKNFFWGSWFLGPPAMDYWGQGTLVTVSSHHHHHH
 |  |  | 520 | 0.4 | AS170036 VL1VH1 HD102S (scFv) scFv: QSALTQPRSVSGSPGQSVTISCAGTSSDVGSENYVSWYQQHPGKAPKLMIYQVNKRASGVPDRFSGSKSGNTASLTISGLQAEDEADYYCASYRSSDHNIVFGGGTKLTVLGGGGSGGGGSGGGGSEVQLVESGGGLVQPGGSLRLSCAASGFTFSSYAMSWVRQAPGKGLEWVSTINSGTGSPYYADSVKGRFTISRDNSKNTLYLQMNSLRAEDTAVYYCAKNFFSGSWFLGPPAMDYWGQGTLVTVSSHHHHHH
 |  |  | 1800 | 0.1 | AS170036 VL1VH1 HD102V (scFv) scFv: QSALTQPRSVSGSPGQSVTISCAGTSSDVGSENYVSWYQQHPGKAPKLMIYQVNKRASGVPDRFSGSKSGNTASLTISGLQAEDEADYYCASYRSSDHNIVFGGGTKLTVLGGGGSGGGGSGGGGSEVQLVESGGGLVQPGGSLRLSCAASGFTFSSYAMSWVRQAPGKGLEWVSTINSGTGSPYYADSVKGRFTISRDNSKNTLYLQMNSLRAEDTAVYYCAKNFFVGSWFLGPPAMDYWGQGTLVTVSSHHHHHH
 |  |  | 1400 | 0.2 | AS170036 VL1VH1 HF101D (scFv) scFv: QSALTQPRSVSGSPGQSVTISCAGTSSDVGSENYVSWYQQHPGKAPKLMIYQVNKRASGVPDRFSGSKSGNTASLTISGLQAEDEADYYCASYRSSDHNIVFGGGTKLTVLGGGGSGGGGSGGGGSEVQLVESGGGLVQPGGSLRLSCAASGFTFSSYAMSWVRQAPGKGLEWVSTINSGTGSPYYADSVKGRFTISRDNSKNTLYLQMNSLRAEDTAVYYCAKNFDDGSWFLGPPAMDYWGQGTLVTVSSHHHHHH
 |  |  | 950 | 0.2 | AS170036 VL1VH1 HD102Q (scFv) scFv: QSALTQPRSVSGSPGQSVTISCAGTSSDVGSENYVSWYQQHPGKAPKLMIYQVNKRASGVPDRFSGSKSGNTASLTISGLQAEDEADYYCASYRSSDHNIVFGGGTKLTVLGGGGSGGGGSGGGGSEVQLVESGGGLVQPGGSLRLSCAASGFTFSSYAMSWVRQAPGKGLEWVSTINSGTGSPYYADSVKGRFTISRDNSKNTLYLQMNSLRAEDTAVYYCAKNFFQGSWFLGPPAMDYWGQGTLVTVSSHHHHHH
 |  |  | 3700 | 0.1 | AS170036 VL1VH1 HF101N (scFv) scFv: QSALTQPRSVSGSPGQSVTISCAGTSSDVGSENYVSWYQQHPGKAPKLMIYQVNKRASGVPDRFSGSKSGNTASLTISGLQAEDEADYYCASYRSSDHNIVFGGGTKLTVLGGGGSGGGGSGGGGSEVQLVESGGGLVQPGGSLRLSCAASGFTFSSYAMSWVRQAPGKGLEWVSTINSGTGSPYYADSVKGRFTISRDNSKNTLYLQMNSLRAEDTAVYYCAKNFNDGSWFLGPPAMDYWGQGTLVTVSSHHHHHH
